The values that follow come from patent publication US20180230189A1 (INSERM INSTITUT NATIONAL DE LA SANT ET DE LA RECHERCHE …, published 2018).

For this assay, the target named is T1, extracellular domain of the recombinant protein NRP-1 from RnD systems (human, UniProt O14786 22-856).
T1 construct: Bought extracellular domain
Description: Bio-layer interferometry (BLI), synthetic peptide and recombinant NRP-1 extracellular domain. As to the method:
Ligands preparation: proteins were incubated in a PBS buffer with a 1:3 ratio molar ratio of biotin (biotin-PEG4-NHS from Pierce EZ kit, prepared following the manufacturer's instructions). Free biotin was removed using a desalting column (Pierce). The biotinylated protein (called ligand) was immobilized onto streptavidin biosensor tips and dipped into wells containing the buffer with the analyte of interest (association) or without (dissociation).
From the best consensus mode, peptide sequences SEQ ID NO:3 for leptin and SEQ ID NO:4 for NRP-1 have been identified (FIG. 2). The Leptin (OB) binding domain (SEQ ID:3) to NRP-1 (SEQ ID:2) was validated by BLI using a synthetized peptide (SEQ ID:3) and the extracellular domain of the recombinant protein NRP-1 from RnD systems (FIG. 3).
On the technique in general: In BLI a coated tip is dipped into the sample, and binding shifts an interference pattern.

T1 sequence (O14786 22-856 V179A limits assumed): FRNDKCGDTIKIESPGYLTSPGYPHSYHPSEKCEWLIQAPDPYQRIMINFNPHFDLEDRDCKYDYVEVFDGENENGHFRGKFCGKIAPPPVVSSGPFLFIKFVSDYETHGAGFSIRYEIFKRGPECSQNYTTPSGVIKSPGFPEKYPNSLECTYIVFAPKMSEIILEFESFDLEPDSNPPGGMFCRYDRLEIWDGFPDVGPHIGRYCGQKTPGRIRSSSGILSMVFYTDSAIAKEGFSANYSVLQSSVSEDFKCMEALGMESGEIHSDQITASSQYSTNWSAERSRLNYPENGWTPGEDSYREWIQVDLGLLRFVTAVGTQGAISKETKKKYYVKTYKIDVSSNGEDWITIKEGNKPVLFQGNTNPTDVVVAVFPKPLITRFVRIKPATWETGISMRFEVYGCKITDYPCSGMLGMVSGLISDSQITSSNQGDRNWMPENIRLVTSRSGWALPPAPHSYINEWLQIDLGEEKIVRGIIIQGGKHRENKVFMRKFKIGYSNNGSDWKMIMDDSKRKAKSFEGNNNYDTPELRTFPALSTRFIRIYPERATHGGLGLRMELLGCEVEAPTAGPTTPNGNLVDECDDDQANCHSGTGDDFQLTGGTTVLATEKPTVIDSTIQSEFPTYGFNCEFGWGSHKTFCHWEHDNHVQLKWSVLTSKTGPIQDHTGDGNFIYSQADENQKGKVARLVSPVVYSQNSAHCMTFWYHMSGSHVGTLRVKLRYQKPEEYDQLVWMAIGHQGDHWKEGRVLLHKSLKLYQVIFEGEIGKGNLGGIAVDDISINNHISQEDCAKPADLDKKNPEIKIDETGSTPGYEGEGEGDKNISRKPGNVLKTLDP

B1: synthetized leptin (OB) peptide SEQ ID NO:3 (peptide)
peptide: ENLRDLLHVLAFSKSCHLPWASGLETL
notes: Synthetic peptide derived from leptin, identified by docking and then tested by BLI
On to B1, for which the binding result was “binds”.
